# Target: the molecule itself
# Assay: self-interaction chromatography; the same protein immobilised on Toyopearl particles (surface coverage ~30-40%) and injected (5-15 mg/mL, 10 uL, 0.5 mL/min); b2 from first-moment retention; increasing ionic strength of different sodium salts; 20 mM sodium phosphate pH 7.0 for lactoferrin, catalase and con A, 50 mM sodium acetate pH 4.5 for lysozyme
protein,measurement,value
"catalase from bovine liver (enzyme, UniProt P00432 1-527, looked up, catalase from bovine liver, MW 250 kD, pI 5.4; Immobilised copy is coupled to Toyopearl AF-Amino-650M particles with EDC and NHS; source: bought: Sigma Aldrich (C9322)) MADNRDPASDQMKHWKEQRAAQKPDVLTTGGGNPVGDKLNSLTVGPRGPLLVQDVVFTDEMAHFDRERIPERVVHAKGAGAFGYFEVTHDITRYSKAKVFEHIGKRTPIAVRFSTVAGESGSADTVRDPRGFAVKFYTEDGNWDLVGNNTPIFFIRDALLFPSFIHSQKRNPQTHLKDPDMVWDFWSLRPESLHQVSFLFSDRGIPDGHRHMNGYGSHTFKLVNANGEAVYCKFHYKTDQGIKNLSVEDAARLAHEDPDYGLRDLFNAIATGNYPSWTLYIQVMTFSEAEIFPFNPFDLTKVWPHGDYPLIPVGKLVLNRNPVNYFAEVEQLAFDPSNMPPGIEPSPDKMLQGRLFAYPDTHRHRLGPNYLQIPVNCPYRARVANYQRDGPMCMMDNQGGAPNYYPNSFSAPEHQPSALEHRTHFSGDVQRFNSANDDNVTQVRTFYLKVLNEEQRKRLCENIAGHLKDAQLFIQKKAVKNFSDVHPEYGSRIQALLDKYNEEKPKNAVHTYVQHGSHLSAREKANL",binding result,binds
